Patent US12258384B2, “Fusion albumin nanoparticle and application thereof” (Jiangnan University, priority 2019, dated 2025)

Assays:
[1] = Loading of docetaxel with recombinant fusion protein, drug loading rate; assay type: physicochemical; settings: 1 mg/mL protein, mixed at pH 5.5 with 10 mg/ml docetaxel solution, then pH 7.4
Protocol: (§1) Albumin fusion protein powder freeze-dried by a freeze dryer was dissolved in a PBS buffer solution to prepare a 1 mg/mL solution, the pH was adjusted to 5.5 with a 1 mM HCl solution, after a 10 mg/ml docetaxel solution was added, the pH was adjusted to 7.4 with a 1 mM NaOH solution, centrifugation was performed at 10000 rpm for 20 minutes, an obtained precipitate was uniformly mixed with ultrapure water and then centrifuged at 1000 rpm for 20 minutes, and the steps above were repeated 3 times to obtain a fusion protein nanoparticle.

[2] = Loading of paclitaxel with recombinant fusion protein (pH response self-assembly), drug loading rate; assay type: physicochemical; settings: 1 mg/ml protein, mixed at pH 5.5 with 10 mg/mL paclitaxel solution, then pH 7.4
Protocol: as §1, with “a 1 mg/ml solution, the” for “a 1 mg/mL solution, the”, “a 10 mg/mL paclitaxel solution was” for “a 10 mg/ml docetaxel solution was”, “obtain a paclitaxel-loaded fusion protein” for “obtain a fusion protein”
A final drug loading rate was directly affected by a mixing ratio of albumin to a drug (for example, paclitaxel): Fusion albumin powder freeze-dried by a freeze dryer was dissolved in a PBS buffer solution to prepare a 1 mg/ml solution, the pH was adjusted to 5.5 with a 1 mM HCl solution, after a drug solution with a concentration of 5 mg/ml, 8 mg/ml, 12 mg/mL and 15 mg/ml was separately added, the pH was adjusted to 7.4 with a 1 mM NaOH solution, centrifugation was performed at 10000 rpm for 20 minutes, an obtained precipitate was uniformly mixed with ultrapure water and then centrifuged at 1000 rpm for 20 minutes, and the steps above were repeated 3 times to obtain a paclitaxel-loaded fusion protein nanoparticle. […]

## RH: albumin fusion protein 3RGD-HSA, without His fusion
[1]
  drug loading rate (docetaxel): 7.08%
[2]
  drug loading rate (paclitaxel): 6.38%
